The target in assay [1] is T1, human CD3 on human PBMC (human, UniProt P07766 23-207).
T1 construct: Native CD3 complex on T cells in PBMC; the other chains of the complex are native; also called human CD3 (PBMC)
As to the kind of experiment: flow cytometry on human PBMC (dead cells and CD19-positive cells excluded), Penta-His Alexa Fluor 488 detection, rMFI. On the technique in general: Flow cytometry measures light scatter and fluorescence of single cells or particles in a stream.

Assay [2] addresses T2, cynomolgus monkey CD3 on cynomolgus monkey PBMC or T cell line HSC-F (cynomolgus monkey, UniProt Q95LI5 22-198).
T2 construct: whole, on cells; Native CD3 complex on monkey T cells; also called cynomolgus monkey CD3 (PBMC); cynomolgus monkey CD3 antigen
As to the kind of experiment: flow cytometry on cynomolgus monkey PBMC, Penta-His Alexa Fluor 488 detection, rMFI.

Assay [3] addresses T3, recombinant human TROP-2/human IgG Fc fused form (R&D Systems, Inc.) (human, UniProt P09758 27-274, limits assumed).
T3 construct: Bought reagent; also called TROP-2/Fc; not shown: human IgG Fc
T3 sequence (looked up): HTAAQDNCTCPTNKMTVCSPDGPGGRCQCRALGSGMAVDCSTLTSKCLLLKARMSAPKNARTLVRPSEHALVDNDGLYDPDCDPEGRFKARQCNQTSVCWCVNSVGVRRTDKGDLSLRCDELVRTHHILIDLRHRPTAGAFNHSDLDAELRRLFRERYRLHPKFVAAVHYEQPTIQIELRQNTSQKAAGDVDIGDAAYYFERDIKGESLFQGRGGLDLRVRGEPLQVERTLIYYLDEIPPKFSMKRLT
Description: SPR (BIAcore 3000), TROP-2/Fc captured on anti-human IgG(Fc), bispecific as analyte, 1:1 binding model. Here is the method:
The bispecific molecule was assayed for its binding to TROP2 using BIAcore 3000 (GE Healthcare Bio-Sciences Corp.) by the capture method, which involves capturing the antigen by an anti-human IgG antibody and assaying the bispecific molecule as an analyte. The antigen used was recombinant human TROP-2/human IgG Fc fused form (R&D Systems, Inc.). Approximately 2000 RU of the anti-human IgG(Fc) antibody (Human Antibody Capture Kit, GE Healthcare Bio-Sciences Corp.) was covalently bound to a sensor chip CM5 (GE Healthcare Bio-Sciences Corp.) by the amine coupling method. Similarly, this antibody was immobilized onto a reference cell. The running buffer used was HBS-P (10 mM HEPES (pH 7.4), 0.15 M NaCl, and 0.005% Surfactant P20). The bispecific molecule was prepared at a 2-fold dilution ratio from 200 nM to 1 nM. A 1 μg/ml solution of the antigen was added onto the anti-human IgG(Fc) antibody-immobilized chip for approximately […]. Then, each concentration of the bispecific molecule was added at a flow rate of 30 μl/min for 300 seconds. Subsequently, the dissociation phase was monitored for 600 seconds. A 3 M magnesium chloride solution was added as a regenerating solution for 30 seconds. The data was analyzed using the 1:1 binding model of analytical software (BIAevaluation software, version 4.1.1) to calculate an association rate constant (ka), a dissociation rate constant (kd), and a dissociation constant (KD; KD=kd/ka).
On the technique in general: SPR reads the build-up and loss of mass on a sensor chip optically.

The target in assay [4] is T4, human CD3εγ single-chain antigen (human).
T4 construct: also called scCD3εγ; His-scCD3 antigen
T4 chain: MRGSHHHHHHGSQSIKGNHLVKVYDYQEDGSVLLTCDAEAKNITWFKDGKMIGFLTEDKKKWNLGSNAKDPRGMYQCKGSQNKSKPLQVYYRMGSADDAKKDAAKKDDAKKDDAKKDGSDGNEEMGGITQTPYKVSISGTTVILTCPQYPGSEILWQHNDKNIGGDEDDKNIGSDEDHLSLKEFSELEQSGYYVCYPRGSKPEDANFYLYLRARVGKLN
As to the kind of experiment: SPR (BIAcore 3000), human CD3εγ single-chain antigen immobilized, bispecific as analyte; KD from the amount bound at each concentration. Here is the method:
The bispecific molecule was assayed for its binding to the CD3εγ antigen using BIAcore 3000 (GE Healthcare Bio-Sciences Corp.) by a method which involves immobilizing the antigen and assaying the antibody as an analyte. […] Approximately 100 RU of the antigen was covalently bound to a sensor chip CM5 (GE Healthcare Bio-Sciences Corp.) by the amine coupling method. Immobilization treatment was performed without the addition of an antigenic protein as a reference cell. […] The bispecific molecule was prepared at a 2-fold dilution ratio from 1 μM (highest concentration) to 4 nM or at a 2-fold dilution ration from 200 nM to 1 nM. Each concentration of the bispecific molecule was added to the antigen-immobilized chip at a flow rate of […] for 25 minutes, and the amount of the bispecific molecule bound thereto was monitored. A 10 mM glycine-hydrochloric acid solution (pH 1.5) was added as a regenerating solution for 30 seconds. The data was analyzed using analytical software (BIAevaluation software, version 4.1.1) to calculate a dissociation constant KD from the amount of the bispecific molecule bound at each concentration.

For assay [5], the target named is T1, human CD3 on human PBMC. As to the kind of experiment: flow cytometry on human PBMC, Penta-His Alexa Fluor 488 detection (rMFI). As to the method:
Commercially available human PBMC (Cellular Technology Ltd. (CTL)) was adjusted to an appropriate concentration with PBS containing 5% FBS. LIVE/DEAD Fixable Near-IR Dead Cell Stain Kit (Thermo Fisher Scientific Inc.) and an anti-CD19 antibody (Beckman Coulter Inc.) were added to the cells, which were then left standing at 4° C. for 30 minutes. The cells were washed twice with PBS containing 5% FBS, then adjusted to a concentration of 1×10⁶ cells/mL with PBS containing 5% FBS, added at a concentration of 100 μL/well to a 96-well U-bottomed microplate, and centrifuged to remove a supernatant. […] The cells were washed twice with PBS containing 5% FBS. Then, Penta-His Alexa Fluor 488 (Qiagen N.V.) diluted with PBS containing 5% FBS was added at a concentration of 30 μL/well, and the plate was left standing at 4° C. for 30 minutes. The cells were washed twice with PBS containing 5% FBS and then resuspended in PBS containing 5% FBS, followed by detection using a flow cytometer (FACSCanto™ II; Becton, Dickinson and Company). The data was analyzed using Flowjo (Tree Star Inc.). The mean fluorescence intensity (MFI) of Alexa Fluor 488 in a fraction free of dead cells and CD19-positive cells was calculated. The MFI value of the scFv-unsupplemented sample was subtracted from the MFI value of the scFv-supplemented sample to calculate a relative value of MFI (rMFI).

The target of assay [6] is T5, CD3 immobilized on a sensor chip (Example 7)-1-2).
T5 construct: the text says only 'CD3 immobilized on a sensor chip'; also called human CD3
Description: SPR (BIAcore T-200), CD3 immobilized, scFv injected at five concentrations; concentration giving 1/2 Rmax. As to the method:
Five different concentrations of the scFv were injected into CD3 immobilized on a sensor chip. Rmax was estimated from the resulting response, and the antibody concentration that reached 1/2 thereof was defined as the dissociation constant of the scFv for CD3.

Assay [7] addresses T2, cynomolgus monkey CD3 on cynomolgus …. As to the kind of experiment: flow cytometry on cynomolgus monkey PBMC.
In assay [8] the target is T6, human TROP2 on FaDu and HPAF-II cells (human, UniProt P09758 27-323).
T6 construct: whole, on cells
T6 sequence (looked up): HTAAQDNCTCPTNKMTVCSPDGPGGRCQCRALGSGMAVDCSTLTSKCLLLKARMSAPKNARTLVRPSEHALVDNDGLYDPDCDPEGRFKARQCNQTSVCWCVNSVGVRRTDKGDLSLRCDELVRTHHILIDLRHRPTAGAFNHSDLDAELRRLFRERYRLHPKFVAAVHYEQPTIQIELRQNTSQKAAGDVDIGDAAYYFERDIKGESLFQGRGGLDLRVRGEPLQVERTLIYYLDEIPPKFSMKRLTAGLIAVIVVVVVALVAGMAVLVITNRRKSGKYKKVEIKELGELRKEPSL
As to the kind of experiment: flow cytometry on HPAF-II cells, Penta-His Alexa Fluor 488 detection, rMFI.

T2 sequence (Q95LI5 22-198): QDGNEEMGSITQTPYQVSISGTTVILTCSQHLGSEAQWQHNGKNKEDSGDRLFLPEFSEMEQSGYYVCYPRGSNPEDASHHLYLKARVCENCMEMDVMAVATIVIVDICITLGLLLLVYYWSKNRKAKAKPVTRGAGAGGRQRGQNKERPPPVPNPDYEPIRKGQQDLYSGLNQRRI

B1: T2C-0001 (HT1-11 scFv/C3E-7034 bispecific molecule) (bispecific antibody)
chain: GQVQLVQSGAEVKKPGASVKVSCKASGYTFTTAGMQWVRQAPGQGLEWMGWINTHSGVPKYAEDFKGRVTISADTSTSTAYLQLSSLKSEDTAVYYCARSGFGSSYWYFDVWGQGTLVTVSSGGGGSGGGGSGGGGSDIQMTQSPSSLSASVGDRVTITCKASQDVSTAVAWYQQKPGKAPKLLIYSASYRYTGVPSRFSGSGSGTDFTLTISSLQPEDFAVYYCQQHYITPLTFGQGTKLEIKRTGGGGSEVQLVESGGGLVQPGGSLRLSCAASGVTFNYYGMSWIRQAPGKGLEWVASITNSGGRIYYPDSVKGRFTISRENTQKTLYLQMNSLRAEDTAVYYCTLDGRDGWVAYWGQGTLVTVSSGGGGSGGGGSGGGGSNFMLTQPHSVSESPGKTVTISCKRNTGNIGSNYVNWYQQHEGSSPTTIIYRDDKRPDGVSDRFSGSIDRSSKSASLTISNLKTEDEADYFCQSYSSGFIFGGGTKLTVLGAAAGAGGDYKDDDDKGAAAHHHHHH
notes: Tandem scFv; also called anti-TROP2-CD3 bispecific molecule
For B1, in the assay with human CD3 on human PBMC [1], the EC50 (read off the curve) (as a rule, the concentration needed to bring the measured effect to its halfway point) was approximately 1 nM. The binding result in assay [2] is given as “binds”. The Kd (as a rule, the equilibrium constant for the complex coming apart) in assay [3] stood at 12.8 nM; in assay [4], 13.9 nM.

B2: C3E-7036 (humanized anti-CD3 scFv) (scFv)
scFv: GEVQLVESGGGLVQPGGSLRLSCAASGVTFNYYGMSWIRQAPGKGLEWVASITNSGGRIYYPDSVKGRFTISRENTQKTLYLQMNSLRAEDTAVYYCTLDGRDGWVAYWGQGTLVTVSSGGGGSGGGGSGGGGSNFMLTQPSSVSGVPGQRVTISCTGNTGNIGSNYVNWYQQLPGTAPKLLIYRDDKRPSGVPDRFSGSKSGTSASLAITGFQAEDEADYYCQSYSSGFIFGGGTKLTVLGAAAGAGGDYKDDDDKGAAAHHHHHH
B2: the binding result (with human CD3 on human PBMC [5]; in assay [7]) was “binds” throughout. Further, the affinity in assay [6], expressed as Kd, was 25 nM.

B3: T2C-0005 (HT1-11 scFv/C3E-7035 bispecific molecule) (bispecific antibody)
chain: GQVQLVQSGAEVKKPGASVKVSCKASGYTFTTAGMQWVRQAPGQGLEWMGWINTHSGVPKYAEDFKGRVTISADTSTSTAYLQLSSLKSEDTAVYYCARSGFGSSYWYFDVWGQGTLVTVSSGGGGSGGGGSGGGGSDIQMTQSPSSLSASVGDRVTITCKASQDVSTAVAWYQQKPGKAPKLLIYSASYRYTGVPSRFSGSGSGTDFTLTISSLQPEDFAVYYCQQHYITPLTFGQGTKLEIKRTGGGGSEVQLVESGGGLVQPGGSLRLSCAASGVTFNYYGMSWIRQAPGKGLEWVASITNSGGRIYYPDSVKGRFTISRENTQKTLYLQMNSLRAEDTAVYYCTLDGRDGWVAYWGQGTLVTVSSGGGGSGGGGSGGGGSMAQAVLTQPSSVSGVPGQRVTISCKRNTGNIGSNYVNWYQQLPGTAPKLLIYRDDKRPSGVPDRFSGSKSGTSASLAITGFQAEDEADYYCQSYSSGFIFGGGTKLTVLGAAAGAGGDYKDDDDKGAAAHHHHHH
notes: as for B1
In the case of B3, the “EC50 (read off the curve)” value (in assay [8]; with human CD3 on human PBMC [1]) was approximately 10 nM each time. The binding result in assay [2] is “binds”. Further, the Kd came out at 11.9 nM in assay [3] and 126 nM in assay [4].

B4: C3E-7035 (humanized anti-CD3 scFv) (scFv)
scFv: GEVQLVESGGGLVQPGGSLRLSCAASGVTFNYYGMSWIRQAPGKGLEWVASITNSGGRIYYPDSVKGRFTISRENTQKTLYLQMNSLRAEDTAVYYCTLDGRDGWVAYWGQGTLVTVSSGGGGSGGGGSGGGGSMAQAVLTQPSSVSGVPGQRVTISCKRNTGNIGSNYVNWYQQLPGTAPKLLIYRDDKRPSGVPDRFSGSKSGTSASLAITGFQAEDEADYYCQSYSSGFIFGGGTKLTVLGAAAGAGGDYKDDDDKGAAAHHHHHH
Take B4: the binding result (with human CD3 on human PBMC [5]; in assay [7]) was “binds” throughout. In addition, the Kd in assay [6] was 22 nM.

B5: T2C-0006 (HT1-11 scFv/C3E-7036 bispecific molecule) (bispecific antibody)
chain: GQVQLVQSGAEVKKPGASVKVSCKASGYTFTTAGMQWVRQAPGQGLEWMGWINTHSGVPKYAEDFKGRVTISADTSTSTAYLQLSSLKSEDTAVYYCARSGFGSSYWYFDVWGQGTLVTVSSGGGGSGGGGSGGGGSDIQMTQSPSSLSASVGDRVTITCKASQDVSTAVAWYQQKPGKAPKLLIYSASYRYTGVPSRFSGSGSGTDFTLTISSLQPEDFAVYYCQQHYITPLTFGQGTKLEIKRTGGGGSEVQLVESGGGLVQPGGSLRLSCAASGVTFNYYGMSWIRQAPGKGLEWVASITNSGGRIYYPDSVKGRFTISRENTQKTLYLQMNSLRAEDTAVYYCTLDGRDGWVAYWGQGTLVTVSSGGGGSGGGGSGGGGSNFMLTQPSSVSGVPGQRVTISCTGNTGNIGSNYVNWYQQLPGTAPKLLIYRDDKRPSGVPDRFSGSKSGTSASLAITGFQAEDEADYYCQSYSSGFIFGGGTKLTVLGAAAGAGGDYKDDDDKGAAAHHHHHH
notes: as for B1
Turning to B5, the binding result (in the assay with human CD3 on human PBMC [1]; in assay [2]) was “binds” throughout. The Kd in assay [3] turned out to be 9.3 nM.

The values above are taken from US20190359712A1 (Daiichi Sankyo, published 2019).
